# B1: AF4H1K1 (antibody, V domains shown)
# VH: QVQLVESGGGVVQPGTSLRLSCEASGFTSSAYAMHWVRQAPGKGLEWVAVITFDGGYQYYADSVKGRFTISRDISRNTLHLHMNSLRAEDTAVYYCARDPLTKLLPFDWVSGGYFDYWGQGTLVTVSS
# VL: not shown
# notes: also called AF4H1K1 IgG; AF4H1K1IgG
# Molecular target: T1, HA of H3 (A/Aichi/2/1968)/PR8 H3N1 (PR8-RS) (Influenza A virus A/Aichi/2/1968 (H3), UniProt P03437 17-566)
# T1 construct: whole, on cells; also called A/Aichi/2/1968 H3N1-RG
# Experiment: immunofluorescence on virus-infected MDCK cells, antibody 40μg/mL
binder,measurement,value
B1,binding result,binds
